Assay: soluble on expression in E. coli; label from the status in PepcDB or PDB records

Row | Sequence | soluble on expression in E. coli
1 | MNIISEHGFRIDGRRPAQIRNINTRLGLNRNAEGSCYLEHGNTKVLCAVYGPYEGKSSKRIEDKCAIVCQYSATKFSGLERKNRTRGDRKSTEISRLLEKAFESVILTEAFPRSQLDIFCEVIQGDGSNLAACVNATSLALADAGIPMKGIASAATCGVVDGKPIVDLTSREETDLLPRVTLATICGRDEVILVELQNRLHIDHLSTVMDAAKATCADVYECLAVVAQQHLKACAPILGN | not soluble
2 | GPGSMPGGGLEVIGTPALPHPSSASDADDAAAGCSFRLSQSGGDPRYVSSRVAGRMQDARHGAESRLVDGTATFLDFLAETSVERPLRVRLRQRARQSFVFFNLETAIDCLNLSWEAYAVQESRGDDFISTGIQVNAAEVPRAALGFVERVAMALLGLCFNPSPHVCHALDDSEEDAAAAISFTSGGDRTPLLDERRASRSRSPVRAPLGAEVASSATRATQADLAAAALFPHCGSSSTRSGSCQPFFRQPAPAASATSPCFGGTSSPPGAAAAGASSFSSSPSNRIGSFPTSASAATANAGADAARLPHMNPEQYGYHRVAVLEARGVQVVVVRMDTSGSCPVHIGKVPRLVIAFRGTDNVANVMEDIRFRQRTWKEMKTPTLSGRASVHSGFLELWMSLKERVIDVVLRELRSQCTPLEGSNAEVSAAGTTGHAGEGASTVAGCSPSQAGHDMFHATVPFSDIWSLRRNGGGRGCADTRQGAFGSEQGGFEGFMRVYVTGHSLGGALASLCAYTLRRMLLLIQYPEPDLVVYTFGQPRIGNFVFKQYYNRAVPCTFRVVNESDAVSGFNFFGGHHVGVQVNIDRHGNYICKPMYIERMFRPTRGRGFALANHAISAYASSLNAMANVYTHGACPLRCRQPYMGEIVSVSSTNSE | not soluble
3 | MKRALFVAEKNDVAKGVAAILSNGTANRREGRSKFNKIYTLNTELFGQQTAISVTSVSGHMMNFQFHENMSNWQTASMVELFRAPVRHVVTPEMKLIEQTLREQAQRHDILVVWTDCDREGEAIGAEIVKVCRDSNRRLDIFRARFSEITKAAITRAARNLIRLDEKTVAAVDCRSELDLRIGSAFTRLQTLHLRNRFRDLLGQNDTSQVISYGSCQFPTLGFVTDRYKMIENFVSEPFWKLIVEHTRESHKVEFLWDRNRLFDRDTVDILHDECKETKEAHVEKVAKKPKSKWRPQALDTVELEKLGISKLRMSAKQTMQVAEKLYSKGFISYPRTETNKFPAGLNLTPLVQQQTQSNIWGDFANEVLQNGVNPRNGRKSDEAHPPIHPLKFTEKHQLQGDDWKVYELVVRHFLACVSQDAQGEETMVNLTVGTEKFHASGLRIRDMGYLKVYVYEKWGNRLLPTYTEGERFTDFELKIGDGKTQAPDFLTEADLISLMDKYGIGTDATHAEHIEKIKTREYIGVRPDGKLIPSFLGLALVDGYDDMGFAMSKPDLRANLEIGLKEICDGRRQKQEVLDEQIGKYRAIFVESERKIGVLSQSLQRYLDKNNQAGGGPGGPGGGGGPPRGPGGGGGGGPTGPPAPPKPPAKPRGRPPRKSISPAVKNGHDDPENDTIVTLSEVFGSMSNPKPARKPRAPRKSAAPKEQEEEEEVFCQCPEPMRAVTKVVQKEGPNKGKKFYTCSLPYTSSEKCNFFKWA | not soluble
4 | MLKSELRKKVLHKRINLSEEERRRLSEKVISNLKSLPEFKKSKKVALYCPIKGEVDLTPLFPEVLKEKELILPKVEGNEISLYRVHSPACLGVGAFGIMEPVEGERVNPEDVDFIAVPGVAFDLEGYRLGFGKGYYDRLLKRVKGLKVGVAYSFQVFERLPRDAWDIPVDVLVTEKNVRRLRDGRSLEHHHHHH | soluble
5 | MRCIMTEDAQKLAIMEQDVKIVRALSKIKHKIVVMSGKGGVGKSTVTVKLAEEFSRNGYSVCVLDADVHGPDIPKMMRVREPEITLTGNLINPIPTPVGATVMSIEFFLPSEDTPVIWRGPKKTGAIRQLLADVNWEGIDVLIVDNPPGTGDEPLTVLQSIPGIDGVVIVTTPQEVSIHDVEKCINMVNHLKIPVLGIIENMSYLQCPECGKKVFLFGKDGGKYLADKFDLQFLGEIPFETGISGDNESSASSYINNEMVKIFNKLAKYLKDGGANLEHHHHHH | soluble
6 | MAHHHHHHMLHLHRCAAQGDWLFLKNLHLVLDWASVLEKELCAMPIPSAEFRLIITTEPHDSFPVVLLRMSAKVTIEAPPGMKQNLLQSYTTWDEAFLQGKTKTTSQVLFGLAWFHALLQERRGYIPQGWVKFYEFSSADLKSAADVLCTLSRDKMDWTTVRGLLQECIYGGRLENSHDERVLERLISRIFNDETLVSCDRRLYDDMRVPATNVHRAVVQFIREHLPDADSPSILSLPDNADRAVKEQFALKLTEDLHTVSHLAQVCVSATEAWRTLLAPVLELWKNSALEPEGNAATVSPGETKEDPMSIFFMRELELLVGIVSNLTETFYDLRCVVEGTLIPSPELREEGTELIGGRVPPRWLDLMDGPKDVKLWFALLRRRRDTMMEYAKRPFSPSTPFDLIDFLRPQTFLNALRLYTVRVSNEALVELMLVATPVGRTADRLGVGFTLKGKSIHLQGALLDAQGILSLPSASSPSSTPLSCDVWAAWMSKHNTEGLARIPIYTNAGRTAAIMDLFLSCDSDMAEKLLLGGVAAFLMSV | not soluble
7 | MDNFENLSTKDSFPEHFRRAVRGIFPDSQLPDEFFLVVYRDGKFERSLQPTATFAGRKAPVVIIPQWKEKHTLEIGNYRKVVDEEFYQIGGKMIYAGRDIFIEDVPGLYRNIDMVFLDGEKECIYRDGFLMMEEKILKIEEPVDVVDGIVITRHRMGSKEIDDTILFRWNNFVLTASGFLVDIKGKWSWKVSNAPVEFSFQGDIFYVLDVCGFLRSYNLKTRQLLWEKKFEGAWGLDSSKDRVFLGAGDEVLVLNAQDGETIERMEADDFAVWKGRLLVYKDGKVDGEDMEGFFIRNFGMPLFVSGKRVVMFGTEKKEFEEVEKVRLFDWGTVIKAGDELWLIRRD | not soluble
8 | MGHHHHHHSHMKSREGSVHPQVEIANLLLIQSSLANLPPGPCWFCLASPEVEKHLVVNIGTHCYLALAKGGLSDDHVLILPIGHYQSVVELSAEVVEEVEKYKATLRRFFKSRGKWCVVFERNYKSHHLQLQVIPVPISCSTTDDIKDAFITQAQEQQIELLEIPEHSDIKQIAQPGAAYFYVELDTGEKLFHRIKKNFPLQFGREVLASEAILNVPDKSDWRQCQISKEDEETLARRFRKDFEPYDFTLDD | not soluble
9 | MGHHHHHHSHMPDHGDWTYEEQFKQLYELDGDPKRKEFLDDLFSFMQKRGTPVNRIPIMAKQVLDLFMLYVLVTEKGGLVEVINKKLWREITKGLNLPTSITSAAFTLRTQYMKYLYPYECEKRGLSNPNELQAAIDSNRREGRR | soluble
10 | MSLIYGFIRDHSNEFAVEKMCQVLNVSRSGYYSWLNRKPGKRELTNKKLKLKIAEIYWQTRGRCGSPRIHKQLKKEGYHYNIKRIERLMRIMGLKAIQKRKFKRTTNSDNNLPLKNNLLKRNFSVTQPDKVWVSDITYIPTKEGWLYLSVVIDLYSRKVVGWSMDNHMTKRLVIDALEMAVLNRNPSRGLIFHSDRGSQYASHDFQKTLWKYGIISSMSRKGDCWDNAVAESFFATLKTELIFHNKYQSRAQAKRDIFEYIEIFYNRIRLHSSLDYKSPEDYEKERKTSKEGHHHHHH | not soluble
11 | KQVENYDSWEDLVSSIDTIERKDDGTLEIYLTWKNGAISHHPSTITNKKCPQKMLQFYESHLTFRENE | soluble
12 | MSMVETAPSKIQVRDLNFYYGKFHALKNINLDIAKNQVTAFIGPSGCGKSTLLRTFNKMYSLYPEQRAEGEILLDGDNILTNTQDIALLRAKVGMVFQKPTPFPMSIYDNIAFGVRLFEKLSRADMDERVQWALTKAALWNETKDKLHQSGYSLSGGQQQRLCIARGIAIRPEVLLLDEPCSALDPISTGRIEELITELKQDYTVVIVTHNMQQAARCSDHTAFMYLGELIEFSNTDDLFTKPAKKQTEDYITGRYG | not soluble
13 | MMSTSDRSRLPLVYACSGCSSVAQLANAFAVRLDRSGQAEMSCISGVGGRVPALTRIAQSGRPILAIDGCQLACVKACLEGVGVVASRHLVLNRIGATKRQHGECTEAEEAATWQSIKLALSEILPVSESVVSN | soluble
14 | MQAYSNPGYSSFPSPTGLEPSCKSCGAHFANTARKQTCLDCKKNFCMTCSSQVGNGPRLCLLCQRFRATAFQREELMKMKVKDLRDYLSLHDISTEMCREKEELVLLVLGQQPVISQEDR | soluble
15 | MRLLPLVAAATAAFLVVACSSPTPPRGVTVVNNFDAKRYLGTWYEIARFDHRFERGLEKVTATYSLRDDGGLNVINKGYNPDRGMWQQSEGKAYFTGAPTRAALKVSFFGPFYGGYNVIALDREYRHALVCGPDRDYLWILSRTPTISDEVKQEMLAVATREGFDVSKFIWVQQPGS | soluble
16 | MESLGSIALFVLVTETRSFTLAGKRLGISSSGVGKSVGRLEESLGVRLFHRSTRSIALTLEGSIFLDRCRRILSELDAAQLELSNARDLPKGRLRISVPLVFGLVMPVVIQFMRTYPEIELDIDFSDRMVDIIDEGFDVVLRTGEPSDSRLMSKRMGSFQLCIVGSPDYFARHGLPEQPADLIHHACLQHKFPSTGKFEHWPLRREPGSEDFELPQTMVCNTTEVLVEVARAGLGITCLPDFMLASAIRKGELIPILSDYTLHTGSFRLFWASSKHLSVRLRVFIDFMHANLFAPARVGQEGRS | not soluble
17 | MLIRQVTMEDLEDIIRIENDNFSAEEAATSQALKERIEVIADTFLVAEQDGQIAGYVEGPVINSRYLTDDLFHKVKPNQEKSGYIAVTSLSVDKAFQKQGVGTTLLAALKDLTVAQNRLGIHLTCHDYLISYYEMNGFSNEGLSESTHGGTVWYNMIWENPKI | not soluble
18 | MGSDKIHHHHHHMPDTTHATIRSARLGDVEHILAEYRQAVAELPREESANLLWRPYDEFKAAVENGLFFVIENAVGSFMAGAGVFDLPGSVEKELGMCYVKKEWRGYGLQNLLLQIRICAATLGHVPDKSGEDAATKSFAALITGVKPANEHSAANTERLGFEPLPTPPSALFNACASCRTPPARDSGRKCCCDFFYLSDARRAEAIEKSLQMENWSRTRNGHGLIVALKIRHLLDIDFRNALHDIVQELRAQEPRVPTPGKQVK | not soluble
19 | MSLSDDIKVLGISGSLRSGSYNSAALQEAIGLVPPGMSIELADISGIPLYNEDVYALGFPPAVERFREQIRAADALLFATPEYNYSMAGVLKNAIDWASRPPEQPFSGKPAAILGASAGRFGTARAQYHLRQTLVFLDVHPLNKPEVMISSAQNAFDAQGRLLDDKARELIQQQLQALQLWVREGGSHHHHHH | soluble
20 | MSLSYLPLDEYQRKWIFTHQSMPVPEEDLAQIKPMSQARSAQFWKENISAQSPDMDRLSSQDWPMKESNWSETVDWMAAWESDEPNMPTEVETHIDWQDDVTVYFCYEKYNVIETKWSIFKKHWKNFLFYDDGPMLLGRRRAQALWFDSKGNVKLGERHEGHHHHHH | soluble
21 | MGSDKIHHHHHHMFAKFVQRHGAARKAADKTIRAQAGALYAALKDPPGPPHAPASAEHREHQEQDAKEQTMYNDSKHGFDVAQTEYEAFMLEPHDWVPNNRKLPVVIYRRALMPASGDLAAAFEILFERNAWPPQWRDGIFDYHHFHATAHEILGVTDGSAQVIVGGPGGRVVTLCAGDALLLPAGTGHCLQSFARHFQVVAGYPEGQQWDIRREALTPDELASMEALPFPSLDPIDGKHGPLVEHWLHAA | not soluble
22 | MSSAKHFTEVLIGGKVYTLSGFEGEEYLQKVSSYLNHKITECANSEGYRKQSADTRNVLLALNIADDYFKAKKQGDSLESDIELKDKEMYDLKHELISVQIKLENAEKELAKMKEENNDLQMQIVKLETEMKNRRK | not soluble

Source: the DeepSol protein solubility set
